Experiment [1] concerns the target huTIM-3/his (human) (UniProt Q8TDQ0). Put plainly: Biacore sequential injection; value belongs to the 2nd antibody huIgG1; competitor (1st antibody) ABTIM3-hum21.
Experiment [2] has the same target. Put plainly: Biacore sequential injection; value belongs to the 2nd antibody huIgG1; competitor (1st antibody) huIgG1.
Experiment [3] has the same target. In words: Biacore sequential injection; value belongs to the 2nd antibody huIgG1; competitor (1st antibody) ABTIM3-hum11.
Experiment [4] shares this target. In words: Biacore sequential injection; value belongs to the 2nd antibody huIgG1; competitor (1st antibody) ABTIM3-hum03.
For experiment [5] the target is unchanged. Put plainly: Biacore, hTIM-3/his captured by anti-His antibody on a CM5 chip; first injection.

The values below come from US20220133889A1.

Consider huIgG1 (antibody), for which the change in RU (2nd antibody injection) with huTIM-3/his (human) [1] was 4.5 RU; with huTIM-3/his (human) [2] it was 3.6 RU; with huTIM-3/his (human) [3], 3.8 RU; with huTIM-3/his (human) [4], 4.5 RU. The substance further registered a change in RU (1st antibody injection) with huTIM-3/his (human) [5] of 0.27 RU.
